Laboratory results from paper PMC7717565 (PLoS Biology, 2020).

Target: Rabbit skeletal muscle α-actin, filamentous (F-actin) (rabbit, UniProt P68135 1-377)
Details: both partners purified

B1: E16R Lifeact–mCherry (peptide)
chain: MGVADLIKKFESISKRE
notes: One of the plasmids 2479, 2556, 2557, 2558; also called E16R Lifeact variant; source: E. coli BL21-CodonPlus(DE3)-RIPL, purified (Protino Ni-IDA resin, dialysis)
B1 showed a Kd of 6 ± 0.7 µM.

B2: E17K Lifeact–mCherry (peptide)
chain: MGVADLIKKFESISKEK
notes: Lifeact (17 N-terminal residues of yeast ABP140) with E17K, fused to mCherry; One of the plasmids 2479, 2556, 2557, 2558; also called E17K variant of Lifeact; source: E. coli BL21-CodonPlus(DE3)-RIPL, purified (Protino Ni-IDA resin, dialysis)
B2 showed a Kd of 8.1 ± 0.6 µM.
